Experimental data reported in US20240117018A1.

Key:
Test in all cases: cell-based or functional assay
[1] = biological target: Env of HIV-1 pseudovirus 249M B10 (HIV-1)
[2] = biological target: Env of HIV-1 pseudovirus Du156.12 (HIV-1)
[3] = biological target: Env of HIV-1 pseudovirus Ce1086_B2 (HIV-1)
[4] = biological target: Env of HIV-1 pseudovirus ZM197M.PB7 (HIV-1)
[5] = biological target: Env of HIV-1 pseudovirus ZM233M.PB6 (HIV-1)
[6] = biological target: Env of HIV-1 pseudovirus CAAN5342.A2 (HIV-1)
[7] = biological target: Env of HIV-1 pseudovirus CNE58 (HIV-1)
[8] = biological target: Env of HIV-1 pseudovirus 191955_A11 (HIV-1)
[9] = biological target: Env of HIV-1 pseudovirus BF1266.431a (HIV-1)
[10] = biological target: Env of HIV-1 pseudovirus 1056_10_TA11_1826 (HIV-1)
[11] = biological target: Env of HIV-1 pseudovirus Q259.d2.17 (HIV-1)
[12] = biological target: Env of HIV-1 pseudovirus T250-4 (HIV-1)
[13] = biological target: Env of HIV-1 pseudovirus CNE52 (HIV-1)
[14] = biological target: Env of HIV-1 pseudovirus HIV-16845-2.22 (HIV-1)
[15] = biological target: Env of HIV-1 pseudovirus THRO4156.18 (HIV-1)
[16] = biological target: Env of HIV-1 pseudovirus Ce2060_G9 (HIV-1)
[17] = biological target: Env of HIV-1 pseudovirus 7030102001E5(Rev-) (HIV-1)
[18] = biological target: Env of HIV-1 pseudovirus ZM135M.PL10a (HIV-1)
[19] = biological target: HIV-1 Env pseudovirus 1056_10_TA11_1826 (HIV-1)
[20] = biological target: HIV-1 Env pseudovirus CNE53 (HIV-1)
[21] = biological target: HIV-1 Env pseudovirus MS208.A1 (HIV-1)
[22] = biological target: HIV-1 Env pseudovirus ZM247v1(Rev-) (HIV-1)
[23] = biological target: HIV-1 Env pseudovirus CNE19 (HIV-1)
[24] = biological target: HIV-1 Env pseudovirus ZM109F.PB4 (HIV-1)
[25] = biological target: HIV-1 Env pseudovirus Ce704809221_1B3 (HIV-1)
[26] = biological target: HIV-1 Env pseudovirus CAP210.2.00.E8 (HIV-1)
[27] = biological target: HIV-1 Env pseudovirus AC10.0.29 (HIV-1)
[28] = biological target: HIV-1 Env pseudovirus Ce2010_F5 (HIV-1)
[29] = biological target: HIV-1 Env pseudovirus SC422661.8 (HIV-1)
[30] = biological target: HIV-1 Env pseudovirus Ce0393_C3 (HIV-1)

## 10-1074 (antibody)
[1]
  IC50: > 50 µg/mL
  IC80: > 50 µg/mL
[2]
  IC50: 0.015 µg/mL
  IC80: 0.076 µg/mL
[3]
  IC50: > 50 µg/mL
  IC80: > 50 µg/mL
[4]
  IC50: > 50 µg/mL
  IC80: > 50 µg/mL
[5]
  IC50: 0.06 µg/mL
  IC80: 0.349 µg/mL
[6]
  IC50: 0.007 µg/mL
  IC80: 0.036 µg/mL
[7]
  IC50: 0.267 µg/mL
  IC80: 0.968 µg/mL
[8]
  IC50: > 50 µg/mL
  IC80: > 50 µg/mL
[9]
  IC50: > 50 µg/mL
  IC80: > 50 µg/mL
[10]
  IC50: 0.038 µg/mL
  IC80: 0.272 µg/mL
[11]
  IC50: > 50 µg/mL
  IC80: > 50 µg/mL
[12]
  IC50: < 0.001 µg/mL
  IC80: 0.005 µg/mL
[13]
  IC50: 1.23 µg/mL
  IC80: 13.1 µg/mL
[14]
  IC50: 1.17 µg/mL
  IC80: 5.83 µg/mL
[15]
  IC50: > 50 µg/mL
  IC80: > 50 µg/mL
[16]
  IC50: > 50 µg/mL
  IC80: > 50 µg/mL
[17]
  IC50: 0.006 µg/mL
  IC80: 0.021 µg/mL
[18]
  IC50: 0.069 µg/mL
  IC80: 0.367 µg/mL

## N49P7.2 (antibody)
[19]
  IC50: 0.114 µg/mL
  IC80: 0.771 µg/mL
  MPI: 100
[20]
  IC50: 0.1 µg/mL
  IC80: 0.277 µg/mL
  MPI: 100
[21]
  IC50: 0.186 µg/mL
  IC80: 0.966 µg/mL
  MPI: 100
[22]
  IC50: 0.177 µg/mL
  IC80: 2.5 µg/mL
  MPI: 96
[23]
  IC50: 0.033 µg/mL
  IC80: 0.129 µg/mL
  MPI: 100
[24]
  IC50: 0.065 µg/mL
  IC80: 0.321 µg/mL
  MPI: 99
[25]
  IC50: 0.874 µg/mL
  IC80: 3.88 µg/mL
  MPI: 100
[26]
  IC50: 3.94 µg/mL
  IC80: 21.7 µg/mL
  MPI: 95
[27]
  IC50: 44.2 µg/mL
  IC80: > 50 µg/mL
  MPI: 53
[28]
  IC50: 0.398 µg/mL
  IC80: 1.29 µg/mL
  MPI: 100
[29]
  IC50: 0.119 µg/mL
  IC80: 0.564 µg/mL
  MPI: 100
[30]
  IC50: 0.137 µg/mL
  IC80: 0.368 µg/mL
  MPI: 100
